Tests used:
[1] = target: CjAA10BΔCBM, cellulose active LPMO CjAA10B from Cellvibrio japonicus lacking its CBM (Cellvibrio japonicus)
[2] = target: CfAA10, LPMO from Cellulomonas fimi (Cellulomonas fimi)
[3] = substrate: O=C1O[C@H]([C@@H](O)CO)C(O)=C1O; test: Amplex Red / horseradish peroxidase coupled H2O2 production, initial rates; assay type: biochemical, Cellvibrio japonicus; conditions: reductant varied, no polysaccharide, O2 from air, 50 mM sodium phosphate pH 6.0, room temperature, 2 µM LPMO
Text: Amplex Red / horseradish peroxidase coupled H2O2 production, initial rates on CjAA10BΔCBM | concentration of CjX183, or ascorbate, was varied around calculated KM values

| rate of oxidation of reduced CjX183 (10 µM, decay of A552, single exponential) with 0 to 50 µM CjAA10BΔCBM; rate rose linearly [1] [min⁻¹] | rate of oxidation of reduced CjX183 (10 µM, decay of A552, single exponential) with 0 to 50 µM CfAA10; rate rose linearly [2] [min⁻¹] | Binder | Km [3] [µM] |
| --- | --- | --- | --- |
| 0.56 | 1.13 | CjX183, c-type cytochrome X183 domain of Cbp2D from Cellvibrio japonicus (domain or fragment, heme c covalently linked via thioether linkages to Cys19 and Cys22 (numbering of the structure); disulfide bond between cysteines 74 and 78) GYLVGDATRGANLWNTQTCVACHGVDGERNASGTPALTPLNPNRDLYRHSRDTQDRALRDFISMWMPQGNEGSCTGQCAADIEAFIRTW | – |
| – | – | CjAA10BΔCBM (Cellvibrio japonicus Ueda107) (protein, AA10 catalytic part, C-terminal CBM deleted, from pET22-CjAA10B) HGFVDSPGARNYFCGAVTKPDHVMNGVARYPECAGAFANDFNGGYSYMSVLTHHQGRKVLGPVARNVCGFDSETWNGGKTPWDNAINWPVNNINSGTLTFSWDISNGPHFDDTSDFRYWITKPGFVYQVGRELTWADFEDQPFCDLAYNDDNPGAYPNVRADKPNTHFHTTCTVPARTGRHVIYAEWGREPPTYERFHGCIDVQIGGGSNSSVPVSSSSSSRSSSSSSLAPSSSSRSSSSSSSVSSSRSSSSSVVSSSSSSRPASSSSSSTGGS | 5.8 ± 0.3 |

Source: publication PMC8981238, “C-type cytochrome-initiated reduction of bacterial lytic polysaccharide monooxygenases” (Biochemical Journal, 2021)
